Laboratory results published in patent US20180017572A1 (Hoffmann-La Roche, published 2018).

target: T1, complement factor C1q (UniProt P02745 23-245; P02746 28-253; P02747 29-245); assay: flow cytometry: BT-474 cells with 10 µg/mL antibody, then 10 µg/mL C1q, detected with PE-labeled anti-C1q antibody
T1 construct: also called Clq; recombinant complement factor C1q
Method: About 3×10⁵ BT-474 cells were incubated with 10 μg/mL of indicated antibody on ice in RPMI 1640 supplemented with 10% FCS. After 30 min. incubation on ice 10 μg/mL C1q (Sigma Aldrich, Cat. No. C1740) was added. The incubation was continued thereafter for an additionally 20 min. on ice. After washing the cells were resuspended in 200 μL medium and counterstained with a PE-labeled anti-C1q antibody (Cedarlane, Cat. No. CL7611PE-SP). After an incubation time of 30 min. on ice cells were washed twice and analyzed on a FACS Canto

T1 sequence (P02745 23-245 limits assumed, chain 1 of 3): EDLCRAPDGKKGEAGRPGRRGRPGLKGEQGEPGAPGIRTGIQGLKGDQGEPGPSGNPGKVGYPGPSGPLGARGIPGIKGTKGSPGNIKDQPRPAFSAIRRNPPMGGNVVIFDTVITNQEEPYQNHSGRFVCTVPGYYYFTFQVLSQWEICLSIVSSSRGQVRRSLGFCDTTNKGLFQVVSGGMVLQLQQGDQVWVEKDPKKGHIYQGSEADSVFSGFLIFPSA
T1 sequence (P02746 28-253 limits assumed, chain 2 of 3): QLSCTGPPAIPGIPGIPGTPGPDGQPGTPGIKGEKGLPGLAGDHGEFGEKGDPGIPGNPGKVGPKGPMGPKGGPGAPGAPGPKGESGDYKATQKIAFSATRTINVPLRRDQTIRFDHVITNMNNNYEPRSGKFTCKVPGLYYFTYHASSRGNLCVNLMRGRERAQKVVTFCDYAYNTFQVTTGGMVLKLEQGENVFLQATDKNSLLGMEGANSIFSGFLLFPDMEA
T1 sequence (P02747 29-245 limits assumed, chain 3 of 3): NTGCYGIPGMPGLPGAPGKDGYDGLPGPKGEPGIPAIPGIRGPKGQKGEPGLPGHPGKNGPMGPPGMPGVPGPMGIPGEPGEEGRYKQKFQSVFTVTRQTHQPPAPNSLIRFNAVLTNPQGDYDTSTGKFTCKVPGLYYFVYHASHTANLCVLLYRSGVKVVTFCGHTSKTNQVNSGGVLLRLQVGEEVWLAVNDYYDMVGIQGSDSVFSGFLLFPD

| Binder | PE-signal (geomean) [geomean PE-signal] |
| --- | --- |
| bispecific anti-HER2 antibody, common light chain (bispecific antibody, human IgG1, kappa, Knob-into-hole bispecific antibody with a common light chain) light: DIQMTQSPSSLSASVGDRVTITCKASQDVSTAVAWYQQKPGKAPKLLIYSASFRYTGVPSRFSGSRSGTDFTLTISSLQPEDFATYYCQQHYTTPPTFGQGTKVEIKRTVAAPSVFIFPPSDEQLKSGTASVVCLLNNFYPREAKVQWKVDNALQSGNSQESVTEQDSKDSTYSLSSTLTLSKADYEKHKVYACEVTHQGLSSPVTKSFNRGEC heavy 1: not shown heavy 2: not shown | 1440 |
| bispecific anti-HER2 antibody, common light chain, glycoengineered (bispecific antibody, human IgG1, kappa, The glycan change is not described) light: DIQMTQSPSSLSASVGDRVTITCKASQDVSTAVAWYQQKPGKAPKLLIYSASFRYTGVPSRFSGSRSGTDFTLTISSLQPEDFATYYCQQHYTTPPTFGQGTKVEIKRTVAAPSVFIFPPSDEQLKSGTASVVCLLNNFYPREAKVQWKVDNALQSGNSQESVTEQDSKDSTYSLSSTLTLSKADYEKHKVYACEVTHQGLSSPVTKSFNRGEC heavy 1: not shown heavy 2: not shown | 1040 |
| bispecific anti-HER2 antibody, CrossMab format (bispecific antibody, human IgG1, kappa, CrossMab format with four different chains) heavy 1: not shown heavy 2: not shown light 1: DIQLTQPPSVSVAPGQTARITCGASQDVSTAVAWYQQKPGQAPVLVVYSASFLYSGIPSRFSGSRSGTDFTLTISRVEAGDEADYYCQQHYTTPPTFGTGTKVTVLRTVAAPSVFIFPPSDEQLKSGTASVVCLLNNFYPREAKVQWKVDNALQSGNSQESVTEQDSKDSTYSLSSTLTLSKADYEKHKVYACEVTHQGLSSPVTKSFNRGEC light 2: DIQMTQSPSSLSASVGDRVTITCKASQDVSIGVAWYQQKPGKAPKLLIYSASYRYTGVPSRFSGSGSGTDFTLTISSLQPEDFATYYCQQYYIYPYTFGQGTKVEIKSSASTKGPSVFPLAPSSKSTSGGTAALGCLVKDYFPEPVTVSWNSGALTSGVHTFPAVLQSSGLYSLSSVVTVPSSSLGTQTYICNVNHKPSNTKVDKKVEPKSC | 489 |
